This note sets out measurements from patent publication US20250154272A1.

In this assay the target is human CD137-His tag protein (R&D Systems, 9220-4B) (human) (UniProt Q07011). Kind of assay: ELISA, human CD137-His tag protein immobilized on the plate, anti-human IgG Fc-HRP, A450-A570. (In general: In an ELISA, binding on a coated surface is turned into a signal by an enzyme label.)

A word on the EC50 (read off the curve): it is the concentration that produces a half-maximal response. A lower EC50 (read off the curve) goes with an effect from little substance.

B1: ctrl IgG_L-3-34-j6 (antibody, part only; not given: isotype control IgG chains and linker, not shown: another chain or arm of the molecule; small tags and cut ends)
scFv: EVQLLESGGGLVQPGESLRLSCKAFGYTFTNHHINWVRQAPGKCLEWVGYINPYNDYTTFNDKFKDRFTLSVDKSKSTAYLQMNSLRAEDTAVYYCARTWGHWYFDLWGQGTLVTVSSGGGGSGGGGSGGGGSNIQMTQSPSSLSASVGDRVTITCRASQSVSSNLAWYQQKPGKAPKLLIYDSSTRATGVPSRFSGSGSGTDFTLTISSLQPEDFATYYCQQYNNWPPWTFGCGTKLEIKR
In the case of B1, the EC50 (read off the curve) worked out at 4 ng/mL.
